According to US20210371503A1 (UNIVERSITY OF COLOGNE, published 2021):

Legend:
[1] = target: T1, receptor-binding domain (RBD) of the spike (S) protein of SARS-CoV-2 (SARS-CoV-2, UniProt P0DTC2 319-541); experiment: ELISA, coated RBD
T1 construct: also called soluble RBD

[2] = target: S1 (truncated S1 subunit); experiment: ELISA, coated truncated S1
[3] = target: S1 (truncated S1 subunit); experiment: ELISA, coated truncated S1 [cont'd]
[4] = target: T1, receptor-binding domain (RBD) of the …; experiment: ELISA, coated RBD [cont'd]
[5] = target: T1, receptor-binding domain (RBD) of the …
[6] = target: T1, receptor-binding domain (RBD) of the …; experiment: ELISA, coated RBD [cont'd]; remark: listed apart in the source
[7] = target: S1 (truncated S1 subunit); experiment: ELISA, coated truncated S1 [cont'd]; remark: listed apart in the source

Binder | EC50 [2] | EC50 [3] | EC50 [4] | EC50 [1] | also measured
FnC1t1p2_A5 (antibody, V domains shown) VH: QVQLVQSGAEVKKPGASVKVSCKASGYTFTSYDINWVRQATGQGLEWMGWMNPNSGNTGYAQKFQGRVTMTRNTSISTAYMELSSLRSEDTAVYYCARATTDCSSTSCWSLDFWSGYYTGGREKIFDYWGQGTLVTVSS VL: not shown | > 1000 µg/mL |  |  |  | binding result [1]: no binding
HbnC4t1p1_D5 (antibody, V domains shown) VH: EVQLVESGGGLVQPGRSLRLSCAASGFTFDDYAMHWVRQAPGKGLEWVSGISWNSGSIGYADSVKGRFTISRDNAKNSLYLQMNSLRAEDTGLYYCAKDINYDSGGYHKNYFDYWGQGTLVTVSS VL: DIQMTQSPSSLSASVGDRATITCRASQSISSYLNWYQEKPGKAPKLLIYAASSLQSGVPSRFSGSGSGTDFTLTISSLQPEDFATYYCQQSYSNPLTFGGGTKVEIK |  | < 1000 µg/mL | < 1000 µg/mL |  | 
HbnC3t1p1_C6 (antibody, V domains shown) VH: QMQLVQSGPEVKKPGTSVKVSCKASGFTFTSSAVQWVRQARGQRLEWIGWIVVGSGNTNYAQKFQERVTITRDMSTSTAYMELSSLRSEDTAVYYCAAPHCSSTICYDGFDIWGQGTMVTVSS VL: not shown |  | < 100 µg/mL | < 100 µg/mL |  | 
CnC2t1p1_B10 (antibody, V domains shown) VH: QVQLVQSGAEVKKPGSSVKVSCKASGGTFSSYAISWVRQAPGQGLEWMGGIIPIFGTANYAQKFQGRVTITADKSTSTAYMELSSLRSEDTAVYYCARVSGYDSSGYWGDYWGQGTLVTVSS VL: EIVLTQSPATLSLSPGERATLSCRASQSVSSYLAWYQQKPGQAPRLLIYDASNRATGIPARFSGSGSGTDFTLTISSLEPEDFAVYYCQQRSNWPPALTFGGGTKVEIK | < 100 µg/mL |  |  | < 100 µg/mL | 
CnC2t1p1_B4 (antibody, V domains shown) VH: QVQLVQSGAEVKKPGASVKVSCKASGYTFTSYGISWVRQAPGQGLEWMGWISAYNGNTNYAQKLQGRVTMTTDTSTSTAYMELRSLRSDDTAVYYCARDGELLGWFDPWGQGTLVTVSS VL: QSALTQPASVSGSPGQSITISCTGTSSDVGSYNLVSWYQQHPGKAPKLMIYEGSKRPSGVSNRFSGSKSGNTASLTISGLQAEDEADYYCCSYAGSSTWVFGGGTKLTVL | < 100 µg/mL |  |  | < 100 µg/mL | 
CnC2t1p1_E8 (antibody, V domains shown) VH: QVQLVQSGAEVKNPGASVKVSCKASGYIFTNYYIHWVRQAPGQGLEWVGWIHSLSGGTSYAQKFQGRVTLTRDASIRTAYMELSRLGSDDTALYYCARASVSTITDFDYWGQGTLVAVSS VL: QSALTQPASVSGSPGQSITISCTGTSGDVGSYNLVSWYQQHPGKAPKLVIYEATKRPSGVSNRFFASKSGNTASLTISGLQAEDEADYYCCSYAGVRTVVFGGGTKLTVL | < 100 µg/mL |  |  | < 100 µg/mL | 
CnC2t1p1_G6 (antibody, V domains shown) VH: QVQLVQSGAEVKKPGASVKVSCKASGYIFTNYYIHWVRQAPGQGLEWVGWIHSLSGGTSYAQKFQGRVTLTRDAPIRTAYMELSGLGSDDTAVYYCARASVATITDFDYWGQGTLVAVSS VL: QSALTQPASVSGSPGQSITISCTGTSGDIGSYNLVSWYQQYPGKAPKLIIYEASKRPSGVSNRFFASKSGNTASLTISGLQAEDEADYYCCSYAGVRTVVFGGGTKLTVL | < 100 µg/mL |  |  | < 100 µg/mL | 
FnC1t2p1_D4 (antibody, V domains shown) VH: QVQLVQSGSELKKPGASVKVSCKASGYTFLRFAMNWLRQAPGQGLEWMGWIDTNTGTPTYAQGFTGRFVFSLDTSVSTAYLQISSLKAEDTAVYYCARSLRGANLVPWGQGTLVTVSS VL: DIQMTQSPSSLSASVGDRVTITCQASQDVSNYLNWYQQQPGKAPKLLIYDAFNLETGVPSRFSGSGSGTDFTFTISSLQPEDIATYYCQQYDNLPLTFGGGTKVEIK | < 100 µg/mL |  |  | < 100 µg/mL | Kd [5]: 0.2 nM
FnC1t2p1_G5 (antibody, V domains shown) VH: QVQLVQSGSELKKPGASVKVSCKASGYTFLRFAMNWLRQAPGQGLEWMGWIDTNTGTPTYAQGFTGRFVFSLDTSVSTAYLQISSLKAEDTAVYYCARSLRGANLVPWGQGTLVTVSS VL: DIQMTQSPSSLSASVGDRVTITCQASQDVSNYLNWYQQQPGKAPKLLIYDAFNLETGVPSRFSGSGSGTDFTFTISSLQPEDIATYYCQQYDNLPLTFGGGTKVEIK |  | < 100 µg/mL | < 100 µg/mL |  | Kd [5]: 0.1 nM
HbnC3t1p1_G4 (antibody, V domains shown) VH: EVQLVESGGGLVQPGGSLRLSCAASGFTVSSNYMSWVRQAPGKGLEWVSVIYSGGSTFYADSVKGRFTISRDNSKNTLYLQMNSLRAEDTAVYYCARDFGDFFFDYWGQGTLVTVSS VL: EIVLTQSPGTLSLSPGERATLSCRASQSVSSYLAWYQQKPGQAPRLLIYGVSSRATGIPDRFSGSGSGTDFTLTISRLEPEDFAVYYCQQYGSSPRTFGQGTKVEIK |  | < 100 µg/mL | < 100 µg/mL |  | 
HbnC3t1p2_B10 (antibody, V domains shown) VH: EVQLVESGGGLVQPGGSLRLSCAASGFIVSSNYMSWVRQAPGKGLEWVSVIYSGGSTFYADSVKGRFTISRDNSKNTLYLQMNSLRAEDTAVYYCARDYGDYFFDYWGQGTLVTVSS VL: EIVLTQSPGTLSLSPGERATLSCRASQSVSSYLAWYQQKPGQAPRLLISGASSRAAGIPDRFSGSGSGTDFTLTINRLEPEDFAVYYCQQYGSSPRTFGQGTKLEIK |  | < 100 µg/mL | < 100 µg/mL |  | 
MnC2t1p1_C5 (antibody, V domains shown) VH: EVQLVESGGGLVQPGGSLRLSCAASGFTVSSNYMSWVRQAPGKGLEWVSVIYSGGSTYYADSVKGRFTISRDNSKNTLYLQMNSLRAEDTAVYYCATGARFGESPFDYWGQGTLVTVSS VL: DIQMTQSPSSVSASVGDRVTITCRASQGISSWLAWYQQKPGKAPKLLIYAASSLQSGVPSRFSGSGSGTDFTLTISSLQPEDFATYYCQQANSFPGTFGQGTKVEIK |  |  |  |  | EC50 [6]: < 100 µg/mL; EC50 [7]: < 100 µg/mL
HbnC2t1p2_D9 (antibody, V domains shown) VH: QVQLVESGGGVVQPGRSLRLSCAASGFTFSSYGMHWVRQAPGKGLEWVAVIWYDGRNKYYVDSVKGRFTISRDNSKNTLYLQISSLRAEDTAVYYCARAARRPVVTDTMAYYMDVWGKGTTVTVSS VL: EIVLTQSPATLSLSPGERATLSCRASLSLSSYLAWYQQKPGQAPRLLIYDASNRATGIPARFSGSGSGTDFTLTISSLEPEDFAVYYCQQRSNWPPTWTFGQGTKAEIKR |  | < 1000 µg/mL | < 1000 µg/mL |  | 
CnC2t1p1_D6 (antibody, V domains shown) VH: EVQLVESGGGLVQPGRSLRLSCTASGFTFGDYAMSWFRQAPGKGLEWVGFIRSKAYGGTTEYAASVKGRFTISRDDSKSIAYLQMNSLKTEDTAVYYCTRVRRLWFGSYYYGMDVWGQGTTVTVSS VL: not shown | < 100 µg/mL |  |  | < 100 µg/mL | 
HbnC3t1p1_F4 (antibody, V domains shown) VH: QVQLVESGGGVVQPGRSLRLSCAATGFTFRRYGMHWVRQAPGKGLEWVAGILFDGSNKYYVDSVKGRFTISRDSSRNTLYLQLNSLRREDTAVYYCAKGGDYEWELLESWGQGTLVTVSS VL: DIQMTQSPSTVSASVGDRVTITCRASQSIDNWLAWYQEKPGKAPKVLIYKASSLESGVPSRFSGRGSGTEFTLTISSLQPGDFATYYCQHYHSFPLTFGGGTKVDIK |  | < 100 µg/mL | < 1000 µg/mL |  | 
MnC1t3p1_G9 (antibody, V domains shown) VH: EVQLLESGGGLVQPGGSLRLSCAASGFTFRNYAMTWVRQAPGKGLEWVSGISDSGDRTYNADSVKGRFSISRDNSKNTLHLQMNSLRAEDTAVYYCALASGSYFGGANYWGQGTLVTVSS VL: QAVVTQEPSLTVSPGGTVTLTCGSSTGPVTSDHYPYWFQQKPGQAPTTLIYDTNNKHSWTPARFSGSLLGGKAALTLSGAQPEDEAEYYCLLSYTGARVFGGGTKLTVL |  |  |  |  | EC50 [6]: < 100 µg/mL; EC50 [7]: < 100 µg/mL
